Data as given in US20220356255A1 (CENTESSA PHARMACEUTICALS UK, published 2022).

Columns and labels:
human PD-L1-Fc protein [1] = target: T1, human PD-L1-Fc protein (human, UniProt Q9NZQ7 19-239); assay: ELISA, purified Fab on coated human PD-L1-Fc, pH 6 (FIG. 4)
T1 construct: Bought from R&D Systems; also called immobilised PD-L1-Fc; not shown: Fc part of the bought fusion protein, not described

human PD-L1 on cells [2] = target: T2, human PD-L1 on cells (human, UniProt Q9NZQ7 19-290); assay: flow cytometry on MDA-MB-231 cells, Krebs buffer, pH 6
T2 construct: Endogenous on MDA-MB-231 cells or transfected into HEK293FF cells (Sino Biological plasmid); the assay field says which; also called native PD-L1 on MDA-MB-231 cells; PD-L1 expressing MDA-MB-231 cells
T2 sequence (Q9NZQ7 19-290 limits assumed): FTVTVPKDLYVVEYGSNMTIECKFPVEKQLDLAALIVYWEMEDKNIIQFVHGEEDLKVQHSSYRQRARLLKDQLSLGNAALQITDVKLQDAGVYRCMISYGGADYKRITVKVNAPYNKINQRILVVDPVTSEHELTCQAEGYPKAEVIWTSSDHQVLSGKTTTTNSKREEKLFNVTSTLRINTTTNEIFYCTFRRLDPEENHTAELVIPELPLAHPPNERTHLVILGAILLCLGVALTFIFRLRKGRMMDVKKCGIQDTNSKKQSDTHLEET
Method: (§1) Anti-PD-L1 affinity matured Fabs were tested for their ability to bind to native PD-L1 in a cell line, (MDA-MB-231 cells) in a buffer resembling the tumor microenvironment (Krebs-lactate).

human PD-L1-Fc protein [3] = target: T1, human PD-L1-Fc protein; assay: ELISA, Fab on coated human PD-L1-Fc, pH 6
human PD-L1 on cells [4] = target: T2, human PD-L1 on cells; assay: flow cytometry on MDA-MB-231 cells, Krebs buffer, pH 6.5
Method: as §1

human PD-L1-Fc protein [5] = target: T1, human PD-L1-Fc protein; assay: ELISA, Fab on coated human PD-L1-Fc; ratio from extrapolating an OD of 0.3 at pH 6 versus pH 7.4
biotinylated human PD-L1 [6] = target: T3, biotinylated human PD-L1 (human, UniProt Q9NZQ7 19-239, limits assumed, biotinylated (sites not given)); assay: competition ELISA, Fab with biotinylated PD-L1 on coated PD-1-Fc; ratio of IC50 values
T3 construct: Bought from R&D Systems; also called biotinylated-PD-L1; human PD-L1 biotin
T3 sequence (Q9NZQ7 19-239 limits assumed): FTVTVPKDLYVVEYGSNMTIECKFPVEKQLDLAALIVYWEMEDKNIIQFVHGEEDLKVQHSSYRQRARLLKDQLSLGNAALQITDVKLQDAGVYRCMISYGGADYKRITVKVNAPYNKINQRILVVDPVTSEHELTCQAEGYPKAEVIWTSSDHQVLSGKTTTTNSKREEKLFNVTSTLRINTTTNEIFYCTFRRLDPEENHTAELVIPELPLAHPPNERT

biotinylated human PD-L1 [7] = target: T3, biotinylated human PD-L1; assay: competition ELISA, Fab with biotinylated PD-L1 on coated PD-1-Fc
human PD-L1-Fc protein [8] = target: T1, human PD-L1-Fc protein; assay: ELISA, Fab on coated human PD-L1-Fc, pH 7.4; pH 7.4
biotinylated human PD-L1 [9] = target: T3, biotinylated human PD-L1; assay: competition ELISA, Fab with biotinylated PD-L1 on coated PD-1-Fc, pH 6.5
human PD-L1 on cells [10] = target: T2, human PD-L1 on cells; assay: flow cytometry on MDA-MB-231 cells, Krebs buffer, pH 7.4
Method: as §1

human PD-L1-Fc protein [11] = target: T1, human PD-L1-Fc protein; assay: BIAcore off rate, unpurified periplasmic extract Fab on PD-L1, pH 7.4
human PD-L1-Fc protein [12] = target: T1, human PD-L1-Fc protein; assay: BIAcore off rate, unpurified periplasmic extract Fab on PD-L1
biotinylated human PD-L1 [13] = target: T3, biotinylated human PD-L1; assay: competition ELISA, Fab with biotinylated PD-L1 on coated PD-1-Fc, pH 6
biotinylated human PD-L1 [14] = target: T3, biotinylated human PD-L1; assay: as above; remark: listed apart in the source
biotinylated human PD-L1 [15] = target: T3, biotinylated human PD-L1; assay: competition ELISA, Fab with biotinylated PD-L1 on coated PD-1-Fc, pH 7.4
human PD-L1-Fc protein [16] = target: T1, human PD-L1-Fc protein; assay: BIAcore off rate, unpurified periplasmic extract Fab on PD-L1, pH 6
human PD-L1 on cells [17] = target: T2, human PD-L1 on cells; assay: flow cytometry on MDA-MB-231 cells, Krebs buffer; ratio of EC50 values
Method: as §1

human PD-L1-Fc protein [18] = target: T1, human PD-L1-Fc protein; assay: SPR BIAcore off rate, mAb over immobilised PD-L1-Fc (FIG. 2)
Method: (§2) To assess the affinity of selected IgG formatted purified clones to human PD-L1 at pH6.0 and at pH7.4, human PD-L1-Fc protein was coated by amine coupling. Surface plasmon resonance (SPR) (BIAcore 3000, GE Healthcare) was used to determine the binding kinetics of selected IgG formatted purified clones to human PD-L1 at pH6.0 and at pH 7.4. Approximately 3000 RU of human PD-L1 Fc (R&D Systems) at 50 μg/ml in Acetate buffer pH 5.0 was immobilized onto a CM5 chip using the standard amine coupling procedure. QC of the PD-L1 immobilization was performed using an anti-PD-L1 commercial antibody (R&D systems cat. no. AF156) at 2.0 μg/ml. 1×HBS-EP pH 7.4 or HBS-EP pH 7.0 or HBS-EP […] citrate buffer pH 6.5 or HBS-EP […] citrate buffer pH 6.0, were utilized as running buffers during binding kinetic measurements. […] Fitting 1:1 binding with mass transfer was applied to the curves using the BIAevaluation software to calculate the kinetic constants of the antibody-antigen interactions including association rate (ka), dissociation rate (kd) and affinity (KD).

biotinylated human PD-L1 [19] = target: T3, biotinylated human PD-L1; assay: competition ELISA, mAb with biotinylated PD-L1 on coated B7-1-Fc (CD80) (FIG. 1B); PD-L1 binding to CD80 (FIG. 1B)
human PD-L1-Fc protein [20] = target: T1, human PD-L1-Fc protein; assay: SPR BIAcore, mAb over immobilised PD-L1-Fc, pH 7.0
Method: as §2

human PD-L1 on cells [21] = target: T2, human PD-L1 on cells; assay: flow cytometry on MDA-MB-231 cells, Krebs buffer with lactate, pH 7.4 (FIG. 3); pH 7.4
Method: (§3) In order to mimic an acidic tumor environment milieu with tumor cells expressing PD-L1 (The metabolism of tumors in the body, Warburg et al. J Gen Physiol. 1927; 8:519-30) the following buffers were utilised: Krebs ringer bicarbonate buffer (KRB, Amsbio catalog number KRB-1000) with 1 mM lactic acid (Sigma catalog number 252476-50DG) for pH 7.4; KRB plus 15 mM lactic acid for pH 6.5 and KRB plus 20 mM lactic acid for pH 6.0). 3 fold dilutions (100 nM to 0.0005 nM; 0) of the Fabs or IgG were prepared in the respective pH buffers and incubated with 0.60E05 MDA-MB-231 cells for 60 minutes at 4° C. The cells were then washed 3× with the respective pH buffers, at 300 g for 3 min. The cells were then incubated with 50 μl of anti-human IgG (Fab specific)-FITC (Sigma, catalog number F5512-1ML) at 1:100 dilution in the respective pH buffers. Binding of the IgG or Fab to PD-L1 expressing cells was measured by FACS (Attune Nxt) and a total of 10.000 cells were acquired per sample.

human PD-L1-Fc protein [22] = target: T1, human PD-L1-Fc protein; assay: SPR BIAcore, mAb over immobilised PD-L1-Fc, pH 6.0
human PD-L1-Fc protein [23] = target: T1, human PD-L1-Fc protein; assay: SPR BIAcore, mAb over immobilised PD-L1-Fc
Method: as §2

human PD-L1 on cells [24] = target: T2, human PD-L1 on cells; assay: flow cytometry on MDA-MB-231 cells, Krebs buffer with lactate, pH 6.0 (FIG. 3); pH 6.0
Method: as §3

human PD-L1-Fc protein [25] = target: T1, human PD-L1-Fc protein; assay: SPR BIAcore, mAb over immobilised PD-L1-Fc, pH 7.4
Method: as §2

human PD-L1 on cells [26] = target: T2, human PD-L1 on cells; assay: flow cytometry on MDA-MB-231 cells, Krebs buffer with lactate, pH printed as 6.6 (FIG. 3); pH printed as 6.6 (experiment described at pH 6.5); pH 6.6
Method: as §3

biotinylated human PD-L1 [27] = target: T3, biotinylated human PD-L1; assay: competition ELISA, mAb with biotinylated PD-L1 on coated PD-1-Fc (FIG. 1A); PD-L1 binding to PD-1 (FIG. 1A)
human PD-L1-Fc protein [28] = target: T1, human PD-L1-Fc protein; assay: SPR BIAcore, mAb over immobilised PD-L1-Fc, pH 6.5
Method: as §2

T1 sequence (Q9NZQ7 19-239 limits assumed): as above

B1: Fab 8D06 (Fab, V domains shown)
VH: QVQLVQSGGGVVQPGRSLRLSCAASGFTFSSYGMYWVRQAPGKGLEWVAVISYDGSNKYYADSVKGRFTISRDNSKNTLNLQMNSLRAEDTAVYYCAKGALTHWGVVIGDGMDVWGQGTTVTVSS
VL: NFMLTQPHSVSESPGKTVTISCVLSPRTHAGHYYRWYQQRPGSSPTTVIYEDDQRPSGVPDRFSGSIDSSSNSASLTISGLKTEDEADYYCQSFDSTNPWVFGGGTKLTVL
notes: Purified Fab prepared from IgG with the Pierce kit; also called 8D06 Fab
- concentration at saturation of binding (human PD-L1-Fc protein [1]): 4 nM
- EC50 (human PD-L1 on cells [2]): 1.45 nM
- EC50 (human PD-L1-Fc protein [3]): 0.11 nM
- EC50 (human PD-L1 on cells [4]): 2.92 nM
- Ratio pH 6:7.4 (human PD-L1-Fc protein [5]): 39
- Ratio pH 6:7.4 (biotinylated human PD-L1 [6]): > 7.63
- fold less inhibitory activity at pH 6.5 than at pH 6 (biotinylated human PD-L1 [7]): ~3 fold
- EC50 (human PD-L1-Fc protein [8]): > 10 nM
- IC50 (biotinylated human PD-L1 [9]): 40 nM
- EC50 (human PD-L1 on cells [10]): 16 nM
- koff (human PD-L1-Fc protein [11]): 0.00345 s⁻¹
- Ratio pH 6 vs 7.4 (human PD-L1-Fc protein [12]): 20
- fold less (IC50) than the control Fab 2.7A04OPT at pH 6 (biotinylated human PD-L1 [13]): ~3 fold
- IC50 (biotinylated human PD-L1 [14]): 13.1 nM
- IC50 (biotinylated human PD-L1 [15]): > 100 nM
- koff (human PD-L1-Fc protein [16]): 0.000699 s⁻¹
- Ratio pH 6:7.4 (human PD-L1 on cells [17]): 11

B2: mAb 2A09 (antibody, V domains shown)
VH: QVQLVQSGGGVVQPGRSLRLSCAASGFTFSSYGMYWVRQAPGKGLEWVAVISYDGSNKYYADSVKGRFTISRDNSKNTLNLQMNSLRAEDTAVYYCAKGALTHWGVVIGDGMDVWGQGTTVTVSS
VL: NFMLTQPHSVSESPGKTVTISCTRSSGSIASNYVQWYQQRPGSSPTTVIYEDDQRPSGVPDRFSGSIDSSSNSASLTISGLKTEDEADYYCQSFDSTNPWVFGGGTKLTVL
notes: Fully human; also called 2A09_WT; 2A09 WT
- fold better off rate at pH 6.0 than at pH 7.4 (human PD-L1-Fc protein [18]): ~5 fold
- IC50 (biotinylated human PD-L1 [19]): 1.2 nM
- Kd (human PD-L1-Fc protein [20]): 0.57 nM
- koff (human PD-L1-Fc protein [20]): 0.00711 s⁻¹
- kon (human PD-L1-Fc protein [20]): 1.25e+07 M⁻¹ s⁻¹
- EC50 (human PD-L1 on cells [21]): 16.3 nM
- Kd (human PD-L1-Fc protein [22]): 0.13 nM
- koff (human PD-L1-Fc protein [22]): 0.000865 s⁻¹
- kon (human PD-L1-Fc protein [22]): 6.77e+06 M⁻¹ s⁻¹
- fold higher affinity at pH 6 than at pH 7.4 (human PD-L1-Fc protein [23]): ~20 fold
- EC50 (human PD-L1 on cells [24]): 2.4 nM
- Kd (human PD-L1-Fc protein [25]): 2.6 nM
- koff (human PD-L1-Fc protein [25]): 0.0271 s⁻¹
- kon (human PD-L1-Fc protein [25]): 1.05e+07 M⁻¹ s⁻¹
- EC50 (human PD-L1 on cells [26]): 6.1 nM
- IC50 (biotinylated human PD-L1 [27]): 0.4 nM
- Kd (human PD-L1-Fc protein [28]): 0.18 nM
- koff (human PD-L1-Fc protein [28]): 0.00129 s⁻¹
- kon (human PD-L1-Fc protein [28]): 7.36e+06 M⁻¹ s⁻¹
